Data reported in patent US20240335558A1, “ISOLATED POLYPEPTIDE AND USE THEREOF” (GLYCO-THERAPY BIOTECHNOLOGY CO., LTD., priority 2021, published 2024).

What was measured:
Assay type in all cases: biochemical
[1] = system: Durvalumab-(GalNAzβ1,4)GlcNAc; experiment: HpFT-2HR and HpFT-4HR transferring GDP-FAmSucMMAE to Durvalumab-(GalNAzβ1,4)GlcNAc; settings: donor 1 mM, enzyme 0.5 mg/mL, 30° C., 3 h and 6 h; FIG. 8B
Procedure: (§1) To 40 mM Tris-HCl (pH 7.5) buffer were added Trastuzumab-(Fucα1,6)(Galβ1,4)GlcNAc (2 mg/mL final), GDP-FAmP4Biotin (1 mM final), MgCl2 (20 mM final), and different HpFT enzymes (HpFT-4HR, HpFT-4HR(M4), HpFT-4HR(M7), HpFT-6HR, HpFT-3HR, HpFT-2HR, HpFT-1HR or HpFT-0HR) (0.5 mg/mL final) in sequence, and the resulting mixed solution was allowed to react at 30° C. for 1 h. Three parallels were set up for each group. After the reaction time point was reached, to the reaction solution was added 10 mM LacNA, and the reaction was terminated by a desalting column (Zeba™ Spin Desalting Columns/2 ml/40K, Thermo Fisher Scientific), and finally mass spectrometry was carried out and % of conversion was calculated. % of conversion=(MAR0 peak intensity*0+MAR1peak intensity*1+MAR2 peak intensity*2)/2* (MAR0 peak intensity+MAR1 peak intensity+MAR2 peak intensity)*100%.
To 40 mM Tris-HCl (pH 7.5) buffer were added Trastuzumab-(GalNAzβ1,4)GlcNAc or Durvalumab-(GalNAzβ1,4)GlcNAc (2 mg/mL final), GDP-FAmSucMMAE (1 mM final), MgCl2 (20 mM final), and HpFT-2HR or HpFT-4HR (0.5 mg/mL final) in sequence, and the resulting mixed solution was allowed to react at 30° C. for 3 h and 6 h. Three parallels were set up for each group. […]

Trastuzumab-G2F [2] = experiment: HpFT-2HR and HpFT-4HR transferring GDP-FAmP4Biotin or GDP-FAzP4Biotin to Trastuzumab-G2F; settings: enzyme 0.5 mg/mL, 30° C., 6 h, FIG. 6(A)
Procedure: (§2) To 40 mM Tris-HCl (pH 7.5) buffer were added Trastuzumab-G2F (2 mg/mL final), GDP-FAmP4Biotin (1 mM final), MgCl2 (20 mM final), and different HpFT enzymes (HpFT-4HR, HpFT-4HR(M4), HpFT-4HR(M7), HpFT-6HR, HpFT-3HR, HpFT-2HR, HpFT-1HR, or HpFT-0HR) (0.5 mg/mL final) in sequence, and the resulting mixed solution was allowed to react at 30° C. for 3 h. Three parallels were set up for each group. After the reaction time point was reached, to the reaction solution was added 10 mM LacNAc (N-acetyl-D-lactosamine), and the reaction was terminated by a desalting column (Zeba™ Spin Desalting Columns/2 ml/40K, Thermo Fisher Scientific), and finally mass spectrometry was carried out and % of conversion was calculated. % of conversion=(MAR0 peak intensity*0+MAR1peak intensity*1+MAR2 peak intensity*2+MAR3 peak intensity*3+MAR4 peak intensity*4)/4* (MAR0 peak intensity+MAR1 peak intensity+MAR2 peak intensity+MAR3 peak intensity+MAR4 peak intensity)*100%.
To 40 mM Tris-HCl (pH 7.5) buffer were added Trastuzumab-G2F (2 mg/mL final), GDP-FAmP4Biotin or GDP-FAzP4Biotin (1 mM final), MgCl2 (20 mM final), and HpFT-2HR or HpFT-4HR (0.5 mg/mL final) in sequence, and the resulting mixed solution was allowed to react at 30° C. for 6 h. Three parallels were set up for each group. After the reaction time point was reached, to the reaction solution was added 10 mM LacNAc, and the reaction was terminated by a desalting column (Zeba™ Spin Desalting Columns/2 ml/40K, Thermo Fisher Scientific), and finally mass spectrometry was carried out and % of conversion was calculated. % of conversion was calculated according to Example 17.

[3] = system: Trastuzumab-(Fucα1,6)(Galβ1,4)GlcNAc; experiment: Transfer of GDP-FAmP4Biotin to Trastuzumab-(Fucα1,6)(Galβ1,4)GlcNAc by different HpFTs; settings: donor GDP-FAmP4Biotin 1 mM, enzyme 0.5 mg/mL, 30° C., 1 h; FIG. 2
Procedure: as §1

Trastuzumab-G2F [4] = experiment: Transfer of GDP-FAmP4Biotin to Trastuzumab-G2F by different HpFTs (% of conversion by MS); settings: donor GDP-FAmP4Biotin 1 mM, enzyme 0.5 mg/mL, 30° C., 3 h; FIG. 1
Procedure: as §2

[5] = system: Trastuzumab-(GalNAzβ1,4)GlcNAc; experiment: Transfer of GDP-FAmP4Biotin to Trastuzumab-(GalNAzβ1,4)GlcNAc by different HpFTs; settings: donor GDP-FAmP4Biotin 1 mM, enzyme 0.5 mg/mL, 30° C., 3 h; FIG. 4
[6] = system: Trastuzumab-(Fucα1,6)(GalNAzβ1,4)GlcNAc; experiment: Transfer of GDP-FAmP4Biotin to Trastuzumab-(Fucα1,6)(GalNAzβ1,4)GlcNAc by different HpFTs; settings: donor GDP-FAmP4Biotin 1 mM, enzyme 0.5 mg/mL, 30° C., 3 h; FIG. 3

B1: HpFT-2HR: H. pylori α-1,3-fucosyltransferase variant: catalytically active domain, two heptapeptide repeat sequences and C-terminus fused His tag (protein)
chain: MFQPLLDAFIESASIEKMVSKSPPPPLKIAVANWWGDEEIKEFKKSVLYFILSQRYAITLHQNPNESSDLVFSNPLGAARKILSYQNTKRVFYTGENESPNFNLFDYAIGFDELDFNDRYLRMPLYYAHLHYEAELVNDTTAPYKLKDNSLYALKKPSHHFKENHPNLCAVVNDESDLLKRGFASFVASNANAPMRNAFYDALNSIEPVTGGGSVRNTLGYKVGNKSEFLSQYKFNLCFENSQGYGYVTEKILDAYFSHTIPIYWGSPSVAKDFNPKSFVNVHDFNNFDEAIDYIKYLHTHPNAYLDMLYENPLNTLDGKAYFYQDLSFKKILDFFKTILENDTIYHNNPFIFYRDLHEPLISIDDLRVNYDDLRVNYLEHHHHHH
modifications: Catalytically active domain of Helicobacter pylori Alpha-(1,3)-fucosyltransferase (GenBank No.AAD07710.1) with 2 heptapeptide repeats and a C-terminal His tag
[1]
  activity in catalyzing the transfer of GDP-FAmSucMMAE, as compared with HpFT-4HR: significantly improved activity
Trastuzumab-G2F [2]; donor 1 mM
  activity in catalyzing the transfer of GDP-FAmP4Biotin relative to transfer of GDP-FAzP4Biotin: significantly higher
Trastuzumab-G2F [2]; donor GDP-FAmP4Biotin 1 mM
  activity in catalyzing the transfer of GDP-FAmP4Biotin, as compared with HpFT-4HR: significantly improved activity
Trastuzumab-G2F [2]; donor GDP-FAzP4Biotin 1 mM
  activity in catalyzing the transfer of GDP-FAzP4Biotin, as compared with HpFT-4HR: significantly improved activity
[3]
  catalytic activity as compared with HpFT-4HR (% of conversion): significantly improved catalytic activity
Trastuzumab-G2F [4]
  catalytic activity among the HpFT variants: highest catalytic activity
  catalytic activity as compared with HpFT-4HR (% of conversion): significantly improved catalytic activity
[5]
  catalytic activity among the HpFT variants: relatively high catalytic activity
  catalytic activity as compared with HpFT-4HR (% of conversion): significantly improved catalytic activity
[6]
  catalytic activity among the HpFT variants: relatively high catalytic activity
  catalytic activity as compared with HpFT-4HR (% of conversion): significantly improved catalytic activity
